Laboratory results as given in publication PMC11222974, “The effect of ADAMTS13 on graft‐versus‐host disease” (Journal of Cellular and Molecular Medicine, 2024).

Legend:
integrin αL chain = integrin αL chain (UniProt P20701); test: SPR; Biacore 3000, 25°C; integrin αL amine-coupled to CM5 (~500 RU), soluble VWF or VWF-A2 flowed over at 30 μL/min in TBSTG (25 mM Tris pH 7.5, 150 mM NaCl, 0.05% Tween, 2% glycerol); apparent
[1] = molecular target: T1, factor VIII‐free Von Willebrand factor (human, UniProt P04275 764-2813); test: SPR; Biacore 3000, 25°C; factor VIII-free VWF amine-coupled to CM5 (~3000 RU after TCEP), αL flowed over at 30 μL/min in TBSTG (25 mM Tris pH 7.5, 150 mM NaCl, 0.05% Tween, 2% glycerol); two-state binding model; apparent; conditions: both partners purified
T1 construct: Von Willebrand factor, human, factor VIII-free; multimeric; molar concentration counted with a monomeric MW of 260 kDa; Multimeric protein; On the SPR chip it was treated with 10 mM TCEP after coupling; also called VWF; recombinant human factor VIII‐free VWF; source: bought: Haematologic Technologies / Prolytix, catalogue HCVWF‐0191

Molecule	Kd (integrin αL chain) [µM]	ka1 (integrin αL chain) [M⁻¹ s⁻¹]	kd1 (integrin αL chain) [s⁻¹]	Kd [1] [µM]
recombinant VWF‐A2 protein (domain or fragment)	0.094	140000	0.013	
integrin αL chain (receptor, UniProt P20701 26-1090, looked up, integrin αL chain (CD11a), recombinant, Origene TP321297; αL chain alone, without β2, in the SPR experiments; In the functional rows this molecule stands for αLβ2 on Jurkat cells; also called aL; CD11a; source: bought: Origene, catalogue TP321297) YNLDVRGARSFSPPRAGRHFGYRVLQVGNGVIVGAPGEGNSTGSLYQCQSGTGHCLPVTLRGSNYTSKYLGMTLATDPTDGSILACDPGLSRTCDQNTYLSGLCYLFRQNLQGPMLQGRPGFQECIKGNVDLVFLFDGSMSLQPDEFQKILDFMKDVMKKLSNTSYQFAAVQFSTSYKTEFDFSDYVKRKDPDALLKHVKHMLLLTNTFGAINYVATEVFREELGARPDATKVLIIITDGEATDSGNIDAAKDIIRYIIGIGKHFQTKESQETLHKFASKPASEFVKILDTFEKLKDLFTELQKKIYVIEGTSKQDLTSFNMELSSSGISADLSRGHAVVGAVGAKDWAGGFLDLKADLQDDTFIGNEPLTPEVRAGYLGYTVTWLPSRQKTSLLASGAPRYQHMGRVLLFQEPQGGGHWSQVQTIHGTQIGSYFGGELCGVDVDQDGETELLLIGAPLFYGEQRGGRVFIYQRRQLGFEEVSELQGDPGYPLGRFGEAITALTDINGDGLVDVAVGAPLEEQGAVYIFNGRHGGLSPQPSQRIEGTQVLSGIQWFGRSIHGVKDLEGDGLADVAVGAESQMIVLSSRPVVDMVTLMSFSPAEIPVHEVECSYSTSNKMKEGVNITICFQIKSLIPQFQGRLVANLTYTLQLDGHRTRRRGLFPGGRHELRRNIAVTTSMSCTDFSFHFPVCVQDLISPINVSLNFSLWEEEGTPRDQRAQGKDIPPILRPSLHSETWEIPFEKNCGEDKKCEANLRVSFSPARSRALRLTAFASLSVELSLSNLEEDAYWVQLDLHFPPGLSFRKVEMLKPHSQIPVSCEELPEESRLLSRALSCNVSSPIFKAGHSVALQMMFNTLVNSSWGDSVELHANVTCNNEDSDLLEDNSATTIIPILYPINILIQDQEDSTLYVSFTPKGPKIHQVKHMYQVRIQPSIHDHNIPTLEAVVGVPQPPSEGPITHQWSVQMEPPVPCHYEDLERLPDAAEPCLPGALFRCPVVFRQEILVQVIGTLELVGEIEASSMFSLCSSLSISFNSSKHFHLYGSNASLAQVVMKVDVVYEKQML				0.12
